{"source": "patent US8975044B2", "about": "“Polynucleotides encoding for frizzled-binding agents and uses thereof” (OncoMed Pharmaceuticals, Inc., priority 2008, dated 2015)", "key": {"FZD5": {"molecular_target": "T1, FZD5 (Homo sapiens, UniProt Q13467)", "T1 construct": "plasmid DNA expressing full-length FZD1, 2, 5, 7 or 8; expressed in transfected cells; host or cells: HEK293", "T1 sequence (Q13467 27-585)": "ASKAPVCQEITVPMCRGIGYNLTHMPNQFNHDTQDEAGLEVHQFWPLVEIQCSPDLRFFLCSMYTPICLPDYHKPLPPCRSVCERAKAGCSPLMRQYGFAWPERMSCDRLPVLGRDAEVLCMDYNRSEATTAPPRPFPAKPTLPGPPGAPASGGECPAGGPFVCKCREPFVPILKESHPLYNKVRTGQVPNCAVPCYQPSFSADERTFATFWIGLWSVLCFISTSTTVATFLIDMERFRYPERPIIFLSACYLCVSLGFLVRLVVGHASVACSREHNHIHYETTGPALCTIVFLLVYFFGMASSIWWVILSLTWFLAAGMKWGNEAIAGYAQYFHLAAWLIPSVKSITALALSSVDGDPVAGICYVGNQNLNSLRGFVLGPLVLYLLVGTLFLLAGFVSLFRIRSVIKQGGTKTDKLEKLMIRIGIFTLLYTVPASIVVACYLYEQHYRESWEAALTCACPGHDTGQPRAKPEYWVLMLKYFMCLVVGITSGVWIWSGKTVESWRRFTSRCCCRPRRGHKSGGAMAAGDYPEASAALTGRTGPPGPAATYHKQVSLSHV", "assay": "FACS binding to FZD-transfected HEK293 cells", "settings": "for EC50: FACS MFI dose-response, full-length FZD in HEK293, 20 μg/ml 4-fold dilutions; for binding to cell-surface FZD5 by flow cytometry (in words): transfected HEK293 cells", "protocol": "(§1) To measure antibody binding to FZD by flow cytometry HEK293 cells were co-transfected with FZD expression vectors and the transfection marker GFP. Twenty-four to forty-eight hours post-transfection, cells were collected in suspension and incubated on ice with anti-FZD antibodies (10 μg/ml unless otherwise indicated) or control IgG to detect background antibody binding. The cells were washed and primary antibodies detected with Fc domain-specific secondary antibodies conjugated to a fluorescent chromophore (e.g. phycoerythrin conjugated anti-human IgG). Labeled cells were then analyzed by flow cytometry to identify anti-FZD antibodies that specifically recognize cell surface expression of FZD protein. Monoclonal antibodies 18R5 and 18R8 recognized FZD on transfected cells. As shown in FIG. 1 and FIG. 2, both 18R8 and 18R5 bind to multiple FZD including FZD1, FZD2, FZD5, FZD7, and FZD8. To examine the relative ability of 18R8 and 18R5 to bind to each FZD protein, titration analysis was conducted wherein the amount of antibody in the binding reaction was varied (FIG. 2).\n(§2) HEK293 cells were co-transfected with a plasmid DNA expressing full-length FZD1, 2, 5, 7 or 8 along with another plasmid expressing the reporter gene GFP used as a transfection marker. Fugene 6 (Roche) was used as transfection reagent according to the manufacturer directions. Transfected cells were incubated twenty-four to forty-eight hours at 37° C. and 5% CO2. The anti-FZD mAbs were then diluted in a final volume of 50 μl starting with a concentration of 20 μg/ml and serially diluted 4-fold for a total of 8 dilutions. Each FZD/GFP 293 transiently tranfectant pool was collected in suspension and 100,000 transfected cells were incubated on ice 30-60 minutes with the diluted anti-FZD mAb to be tested. The cells were washed and bound anti-Fzd antibodies were detected with a secondary anti-human antibody conjugated to a fluorescent chromophore. Labeled cells were then detected and counted by FACS. The FACS data generated were expressed in Mean Fluorescence Intensity (MFI) units. GraphPad Prism software was used to graph and analyze the data. MFIs were plotted as a function of Ab concentration to establish dose-response curves. A non-linear regression was applied to the numbers to fit the curve and calculate EC50s."}, "FZD2": {"molecular_target": "T2, FZD2 (Homo sapiens, UniProt Q14332)", "T2 construct": "plasmid DNA expressing full-length FZD1, 2, 5, 7 or 8; expressed in transfected cells; host or cells: HEK293", "T2 sequence (Q14332 24-565)": "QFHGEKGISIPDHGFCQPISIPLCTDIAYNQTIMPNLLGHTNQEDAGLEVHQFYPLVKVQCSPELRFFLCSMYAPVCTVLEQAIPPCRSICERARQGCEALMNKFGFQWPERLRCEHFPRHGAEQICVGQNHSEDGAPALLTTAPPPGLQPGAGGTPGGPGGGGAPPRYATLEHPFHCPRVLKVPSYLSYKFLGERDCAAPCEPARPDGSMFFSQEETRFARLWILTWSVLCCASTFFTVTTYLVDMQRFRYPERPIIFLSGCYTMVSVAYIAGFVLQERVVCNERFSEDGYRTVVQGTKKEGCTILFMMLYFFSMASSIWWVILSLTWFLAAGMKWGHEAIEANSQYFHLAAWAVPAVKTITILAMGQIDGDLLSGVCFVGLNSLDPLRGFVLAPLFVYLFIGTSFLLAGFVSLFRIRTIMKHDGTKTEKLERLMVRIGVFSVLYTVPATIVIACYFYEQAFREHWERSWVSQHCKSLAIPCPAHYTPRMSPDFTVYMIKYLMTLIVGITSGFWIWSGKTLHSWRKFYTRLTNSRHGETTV", "assay": "FACS binding to FZD-transfected HEK293 cells", "settings": "for binding to cell-surface FZD2 by flow cytometry (in words): transfected HEK293 cells", "protocol": "as §1, §2"}, "FZD8 [1]": {"molecular_target": "T3, FZD8 (Homo sapiens, UniProt Q9H461)", "T3 construct": "plasmid DNA expressing full-length FZD1, 2, 5, 7 or 8; expressed in transfected cells; host or cells: HEK293", "T3 sequence (Q9H461 28-694)": "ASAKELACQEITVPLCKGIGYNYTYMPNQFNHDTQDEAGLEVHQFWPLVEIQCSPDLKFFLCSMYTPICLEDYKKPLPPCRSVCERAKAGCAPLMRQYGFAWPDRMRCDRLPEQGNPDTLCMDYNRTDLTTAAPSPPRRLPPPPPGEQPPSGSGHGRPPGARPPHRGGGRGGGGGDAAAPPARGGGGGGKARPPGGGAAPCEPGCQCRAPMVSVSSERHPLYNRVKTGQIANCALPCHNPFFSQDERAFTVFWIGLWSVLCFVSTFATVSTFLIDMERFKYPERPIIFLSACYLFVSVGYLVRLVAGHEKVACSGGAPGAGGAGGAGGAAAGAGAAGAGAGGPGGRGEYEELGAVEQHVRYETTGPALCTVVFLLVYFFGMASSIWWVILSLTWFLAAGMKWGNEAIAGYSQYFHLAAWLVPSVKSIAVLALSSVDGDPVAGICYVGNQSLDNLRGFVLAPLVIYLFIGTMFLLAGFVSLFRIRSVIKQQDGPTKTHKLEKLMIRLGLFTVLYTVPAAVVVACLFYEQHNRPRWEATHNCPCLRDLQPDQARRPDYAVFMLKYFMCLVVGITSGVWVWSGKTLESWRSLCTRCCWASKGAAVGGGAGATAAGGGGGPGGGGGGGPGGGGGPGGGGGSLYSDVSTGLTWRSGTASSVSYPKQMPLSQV", "assay": "FACS binding to FZD-transfected HEK293 cells", "settings": "for EC50: FACS MFI dose-response, full-length FZD in HEK293, 20 μg/ml 4-fold dilutions; for binding to cell-surface FZD8 by flow cytometry (in words): transfected HEK293 cells", "protocol": "as §1, §2"}, "FZD1": {"molecular_target": "T4, FZD1 (Homo sapiens, UniProt Q9UP38)", "T4 construct": "plasmid DNA expressing full-length FZD1, 2, 5, 7 or 8; expressed in transfected cells; host or cells: HEK293", "T4 sequence (Q9UP38 70-647)": "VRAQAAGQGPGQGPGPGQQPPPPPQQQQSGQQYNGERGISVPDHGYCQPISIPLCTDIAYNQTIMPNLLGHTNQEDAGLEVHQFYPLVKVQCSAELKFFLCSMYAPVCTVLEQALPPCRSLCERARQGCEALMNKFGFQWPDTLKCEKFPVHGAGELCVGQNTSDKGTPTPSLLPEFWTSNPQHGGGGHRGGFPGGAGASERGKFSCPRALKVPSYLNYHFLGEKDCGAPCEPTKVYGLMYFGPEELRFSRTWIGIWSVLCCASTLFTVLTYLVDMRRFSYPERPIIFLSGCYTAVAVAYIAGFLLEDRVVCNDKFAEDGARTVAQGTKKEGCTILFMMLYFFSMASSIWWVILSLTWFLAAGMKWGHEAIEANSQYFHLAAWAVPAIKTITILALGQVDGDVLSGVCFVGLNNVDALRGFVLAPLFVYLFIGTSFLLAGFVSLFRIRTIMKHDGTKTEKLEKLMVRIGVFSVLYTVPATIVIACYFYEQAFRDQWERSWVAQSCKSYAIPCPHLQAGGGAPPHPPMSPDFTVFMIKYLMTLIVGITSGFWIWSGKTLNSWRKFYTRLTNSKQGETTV", "assay": "FACS binding to FZD-transfected HEK293 cells", "settings": "transfected HEK293 cells", "protocol": "as §1, §2"}, "FZD7": {"molecular_target": "T5, FZD7 (Homo sapiens, UniProt O75084)", "T5 construct": "plasmid DNA expressing full-length FZD1, 2, 5, 7 or 8; expressed in transfected cells; host or cells: HEK293", "assay": "FACS binding to FZD-transfected HEK293 cells", "settings": "transfected HEK293 cells", "protocol": "as §1, §2"}, "FZD8 [2]": {"molecular_target": "T6, FZD8 (Homo sapiens, UniProt Q9H461, F127V/G126N)", "T6 construct": "N-terminus of the Fri domain of FZD8 in turn fused to the transmembrane domain and intracellular domain of CD4 protein; expressed in transfected cells; host or cells: HEK293", "T6 sequence (Q9H461 28-158 G126N/F127V)": "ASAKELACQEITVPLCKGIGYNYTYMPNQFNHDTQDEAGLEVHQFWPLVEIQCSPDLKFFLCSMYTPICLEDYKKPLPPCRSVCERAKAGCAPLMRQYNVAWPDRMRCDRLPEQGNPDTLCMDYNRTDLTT", "assay": "Epitope mapping by FACS on FZD8 Fri domain variants on HEK293 cells", "type": "binding", "settings": "amino acids 126-127 mutated from FG to NV", "protocol": "To identify the FZD epitope recognized by the 18R8 IgG antibody, epitope mapping was performed. Flow cytometry analysis of cell surface expressed FZD was utilized to measure antibody binding. Mammalian expression plasmid vectors comprising a CMV promoter upstream of polynucleotides that encode an N-terminal signal sequence FLAG epitope tag fused to the N-terminus of the Fri domain of FZD8 in turn fused to the transmembrane domain and intracellular domain of CD4 protein were generated by standard recombinant technology. This expression construct allows expression of the FZD8 Fri domain on the cell surface, as well as expression of a FLAG epitope tag to monitor expression. Site-direct mutagenesis was then used to modify selected amino acids within the extracellular domain of FZD. HEK293 cells were co-transfected with expression vectors encoding the FZD and the transfection marker GFP. Forty-eight hours post-transfection, cells were collected in suspension and incubated on ice with anti-FZD antibody or control IgG to detect background antibody binding. The cells were washed and primary antibodies detected with anti-antibody secondary antibodies conjugated to a fluorescent chromophore. Labeled cells were then analyzed by flow cytometry to measure the binding of anti-FZD antibody to cell surface FZD.\nEpitope mapping for the anti-FZD antibody 44R24 was performed in a manner similar to that described above in Example 5 for the antibodies 18R8 and 18R5. The ability of 44R24 to bind to a similar epitope as 18R8 was assessed by flow cytometry using a series of amino acid variants of FZD8 previously shown to disrupt binding of 18R8 (see Example 5 and FIGS. 6 and 7)."}, "C28 tumor cells": {"test_system": "C28 tumor cells", "assay": "C28 colon tumor growth study", "type": "in vivo, Nod-Scid mice", "settings": "15 mg/kg intraperitoneally twice per week", "protocol": "C28 tumor cells were injected sub-cutaneously in Nod-Scid mice. Tumors were allowed to grow until they had reached an average volume of 126 mm^3. Tumor bearing animals were groups were randomized into four groups (n=10 mice per group) and treated with either Control Ab (black squares), 18R8 (gray triangles), 44R24 (black open circles), or 18R5 (gray circles) (FIG. 58). Antibodies were dosed intraperitoneally at 15 mg/kg, twice per week. Tumor volumes are indicated."}, "[3]": {"test_system": "MMTV-WNT1 tumor derived cells", "assay": "MMTV-WNT1 tumor growth", "type": "in vivo, NOD/SCID mice", "settings": "10 mg/kg intra-peritoneal twice weekly; p=0.002", "protocol": "Female NOD/SCID mice were injected at age 5-7 weeks with 50,000 mouse mammary tumor virus (MMTV)-WNT1 tumor derived cells in the upper right mammary fat pad. […] Tumors from these mice were dissociated and these dissociated tumor cells used for tumor propagation purposes. Mice with tumor cells implanted in the mammary fat pad were monitored twice a week. Once tumors were palpable, tumors were measured twice weekly and tumor volume was determined using the formula ½(a×b^2); where a=length, and b=breadth. Data are expressed as mean and mean±S.E.M. Group means were compared using Student's two-tailed, unpaired t test. […] On day 19, mice with average tumor volume of 44 mm^3 were randomized into 2 groups of 10 animals each. Animals were injected with either control antibody, or 18R5 IgG antibody (10 mg/kg). Administration of the antibodies was performed via injection into the intra-peritoneal cavity, twice weekly."}}, "data": [{"molecule": "18R5: human anti-FZD antibody; VH SEQ ID NO:10 (as 18R8), VL SEQ ID NO:14; binds FZD1, 2, 5, 7, 8 (antibody, V domains shown, 18R5/18R8 heavy chain variable region (VH); 18R5 light chain variable region (VL)) VH: EVQLVESGGGLVQPGGSLRLSCAASGFTFSHYTLSWVRQAPGKGLEWVSVISGDGSYTYYADSVKGRFTISSDNSKNTLYLQMNSLRAEDTAVYYCARNFIKYVFANWGQGTLVTVSS VL: DIELTQPPSVSVAPGQTARISCSGDNIGSFYVHWYQQKPGQAPVLVIYDKSNRPSGIPERFSGSNSGNTATLTISGTQAEDEADYYCQSYANTLSLVFGGGTKLTVLG", "values": [{"measurement": "EC50", "setting": "FZD5", "result": 1.1, "unit": "nM"}, {"measurement": "binding to cell-surface FZD5 by flow cytometry (in words)", "setting": "FZD5", "result": "bind and greater binding potency and High affinity binding"}, {"measurement": "binding to cell-surface FZD2 by flow cytometry (in words)", "setting": "FZD2", "result": "bind and greater binding potency and High affinity binding"}, {"measurement": "EC50", "setting": "FZD8 [1]", "result": 12, "unit": "nM"}, {"measurement": "binding to cell-surface FZD8 by flow cytometry (in words)", "setting": "FZD8 [1]", "result": "greater binding potency and bind"}, {"measurement": "binding to cell-surface FZD1 by flow cytometry (in words)", "setting": "FZD1", "result": "bind and greater binding potency and High affinity binding"}, {"measurement": "binding to cell-surface FZD7 by flow cytometry (in words)", "setting": "FZD7", "result": "bind and greater binding potency and High affinity binding"}, {"measurement": "binding to FZD8 variant", "setting": "FZD8 [2]", "result": "reduced staining"}, {"measurement": "tumor growth relative to the control group", "setting": "C28 tumor cells", "result": "reduced growth relative to the control group"}, {"measurement": "tumor growth compared to control antibody", "setting": "[3]", "result": "completely abolished tumor growth"}]}, {"molecule": "18R8: human anti-FZD antibody from phage display; VH SEQ ID NO:10, VL SEQ ID NO:12; binds FZD1, 2, 5, 7, 8 (antibody, V domains shown, 18R5/18R8 heavy chain variable region (VH); 18R8 light chain variable region (VL)) VH: EVQLVESGGGLVQPGGSLRLSCAASGFTFSHYTLSWVRQAPGKGLEWVSVISGDGSYTYYADSVKGRFTISSDNSKNTLYLQMNSLRAEDTAVYYCARNFIKYVFANWGQGTLVTVSS VL: DIELTQPPSVSVAPGQTARISCSGDKLGKKYASWYQQKPGQAPVLVIYEKDNRPSGIPERFSGSNSGNTATLTISGTQAEDEADYYCSSFAGNSLEVFGGGTKLTVLG", "values": [{"measurement": "binding to cell-surface FZD5 by flow cytometry (in words)", "setting": "FZD5", "result": "bind"}, {"measurement": "binding to cell-surface FZD2 by flow cytometry (in words)", "setting": "FZD2", "result": "bind"}, {"measurement": "binding to cell-surface FZD8 by flow cytometry (in words)", "setting": "FZD8 [1]", "result": "bind"}, {"measurement": "binding to cell-surface FZD1 by flow cytometry (in words)", "setting": "FZD1", "result": "bind"}, {"measurement": "binding to cell-surface FZD7 by flow cytometry (in words)", "setting": "FZD7", "result": "bind"}, {"measurement": "binding to FZD8 variant", "setting": "FZD8 [2]", "result": "similarly lost"}, {"measurement": "tumor growth relative to the control group", "setting": "C28 tumor cells", "result": "had no effect"}, {"measurement": "tumor growth compared to control antibody", "setting": "[3]", "result": "virtually eliminated"}]}, {"molecule": "44R24: anti-FZD5/8 IgG antibody, VH SEQ ID NO:85, VL SEQ ID NO:86; ATCC deposit no. PTA-10311 (antibody, V domains shown, 44R24 VH; 44R24 VL, ATCC deposit no; PTA-10311) VH: EVQLVESGGGLVQPGGSLRLSCAASGFTFSSYYITWVRQAPGKGLEWVSTISYSSSNTYYADSVKGRFTISRDNSKNTLYLQMNSLRAEDTAVYYCARSIVFDYWGQGTLVTVSS VL: DIELTQPPSVSVAPGQTARISCSGDALGNRYVYWYQQKPGQAPVLVIPSGIPERFSGSNSGNTATLTISGTQAEDEADYYCGSWDTRPYPKYVFGGGTKLTVLG", "values": [{"measurement": "EC50", "setting": "FZD5", "result": 1.89, "unit": "nM"}, {"measurement": "binding to cell-surface FZD5 by flow cytometry (in words)", "setting": "FZD5", "result": "good affinity"}, {"measurement": "EC50 (nM) Fzd2", "setting": "FZD2; FACS MFI dose-response, full-length FZD in HEK293, 20 μg/ml 4-fold dilutions", "result": "no binding"}, {"measurement": "binding to cell-surface FZD2 by flow cytometry (in words)", "setting": "FZD2", "result": "does not bind"}, {"measurement": "EC50", "setting": "FZD8 [1]", "result": 1.09, "unit": "nM"}, {"measurement": "binding to cell-surface FZD8 by flow cytometry (in words)", "setting": "FZD8 [1]", "result": "good affinity"}, {"measurement": "binding to cell-surface FZD1 by flow cytometry (in words)", "setting": "FZD1", "result": "does not bind"}, {"measurement": "binding to cell-surface FZD7 by flow cytometry (in words)", "setting": "FZD7", "result": "does not bind"}, {"measurement": "binding to FZD8 variant", "setting": "FZD8 [2]", "result": "reduced staining"}, {"measurement": "tumor growth relative to the control group", "setting": "C28 tumor cells", "result": "reduced growth relative to the control group"}]}]}
